According to patent US20150064134A1:

Target: MAPKAP-K2(h) (human) (UniProt P49137)
Experiment: cell-based or functional assay

Substance: MMI-0100 (peptide)
- IC50 (radiometric kinase activity assay): 22 µM
